From patent publication US20230124851A1 (INHIBRX LNC, published 2023)

T1: human B7H3 (CD276) on the cell surface (human, UniProt Q5ZPR3 29-534)
T1 construct: B7H3 on A375 and other B7H3-positive or transfected cells
T1 sequence: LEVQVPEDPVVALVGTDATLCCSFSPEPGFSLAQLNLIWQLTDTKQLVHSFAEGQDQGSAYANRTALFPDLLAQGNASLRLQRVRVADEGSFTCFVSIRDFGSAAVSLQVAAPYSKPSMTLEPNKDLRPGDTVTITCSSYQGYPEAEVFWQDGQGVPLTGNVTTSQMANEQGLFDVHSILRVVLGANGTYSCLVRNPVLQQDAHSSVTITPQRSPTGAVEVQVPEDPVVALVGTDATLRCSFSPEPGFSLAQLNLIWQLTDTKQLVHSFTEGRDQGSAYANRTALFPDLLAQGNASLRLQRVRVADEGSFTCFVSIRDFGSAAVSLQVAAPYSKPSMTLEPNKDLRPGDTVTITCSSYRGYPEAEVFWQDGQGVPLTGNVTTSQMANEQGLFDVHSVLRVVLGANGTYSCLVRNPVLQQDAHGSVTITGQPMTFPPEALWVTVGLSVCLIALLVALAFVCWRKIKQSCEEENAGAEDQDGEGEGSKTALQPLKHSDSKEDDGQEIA

B1: cx2846 (bispecific antibody, not shown: a dimerising Fc or GST)
chain 1: EVQLVESGGGEVQPGGSLRLSCAASGSTFSSYHMSWFRQAPGKQREPVATSHHGGTTNYAGSVKGRFTISRDNAKNTVYLQMNTLRAEDTAVYYCKADHGYQGRGYWGQGTLVTVKPGGSGGGGIEPDIGGSGGSEVQLVESGGGLVQPGGSLRLSCAASGFTFNTYAMNWVRQAPGKCLEWVARIRSKYNNYATYYADSVKGRFTISRDDAKNTLYLQMSSLRAEDTAVYYCVRHGNFGNSYVSWFAYWGQGTLVTVKPEVQLVESGGGEVQPGGSLRLSCAPSERTFSTYTMGWFRQAPGKEREFVAVVNWGGGSKYYAESVKGRFTISRDNAKNTVYLQMSSLRAEDTAVYYCAAGGAYSGPYYDTRQYTYWGQGTLVTVKP
chain 2: GGSGGGGIEPDIGGSGGSQAVVTQEPSLTVSPGGTVTLTCGSSTGAVTTSNYANWVQQKPGQAFRGLIGGTNKRAPGVPARFSGSLLGGKAALTISGAQPEDEADYYCALWYSNHWVFGCGTKLTVL
B2: cx3960 (bispecific antibody, not shown: a dimerising Fc or GST)
chain 1: EVQLVESGGGEVQPGGSLRLSCAASGSTFSSYHMSWFRQAPGKQREPVATSHHGGTTNYAGSVKGRFTISRDNAKNTVYLQMNTLRAEDTAVYYCKADHGYQGRGYWGQGTLVTVKPGGSGGGGIEPDIGGSGGSEVQLVESGGGLVQPGGSLRLSCAASGFTFNTYAMNWVRQAPGKCLEWVARIRSKYNNYATYYADSVKGRFTISRDDAKNTLYLQMSSLRAEDTAVYYCVRHGNFGNSYVSWFAYWGQGTLVTVKPQLQLQESGGGLVQAGDSLRLSCAASGFSFGSNVMMWVRQAPGKGPEWVSTIYSSGTGTFYADSVKGRFTISRNNAKNTLYLQMNSLKPDDTAVYYCATSGPVRGWGPRSQGTLVTVKP
chain 2: B1 chain 2
B3: cx4908 (bispecific antibody)
chain 1: EVQLVESGGGEVQPGGSLRLSCAASGSTFSSYHMSWFRQAPGKQREPVATSHHGGTTNYAGSVKGRFTISRDNAKNTVYLQMNTLRAEDTAVYYCKADHGYQGRGYWGQGTLVTVKPDKTHTCPPCPAPGGPSVFLFPPKPKDTLMISRTPEVTCVVVDVSHEDPEVKFNWYVDGVEVHNAKTKPREEQYNSTYRVVSVLTVLHQDWLNGKEYKCKVSNKALPAPIEKTISKAKGQPREPQVYTLPPCRDELTKNQVSLWCLVKGFYPSDIAVEWESNGQPENNYKTTPPVLDSDGSFFLYSKLTVDKSRWQQGNVFSCSVMHEALHNHYTQKSLSLSPTGGSGGGGIEPDIGGSGGSEVQLVESGGGLVQPGGSLRLSCAASGFTFNTYAMNWVRQAPGKCLEWVARIRSKYNNYATYYADSVKGRFTISRDDAKNTLYLQMSSLRAEDTAVYYCVRHGNFGNSYVSWFAYWGQGTLVTVKPEVQLVESGGGEVQPGGSLRLSCAASGFSFGSNVMMWVRQAPGKGPEWVSTIYSSGTGTFYAESVKGRFTISRDNAKNTLYLQMSSLRAEDTAVYYCATSGPVRGWGPWSQGTLVTVKP
chain 2: DKTHTCPPCPAPGGPSVFLFPPKPKDTLMISRTPEVTCVVVDVSHEDPEVKFNWYVDGVEVHNAKTKPREEQYNSTYRVVSVLTVLHQDWLNGKEYKCKVSNKALPAPIEKTISKAKGQPREPQVCTLPPSRDELTKNQVSLSCAVKGFYPSDIAVEWESNGQPENNYKTTPPVLDSDGSFFLVSKLTVDKSRWQQGNVFSCSVMHEALHNRYTQKSLSLSPTGGSGGGGIEPDIGGSGGSQAVVTQEPSLTVSPGGTVTLTCGSSTGAVTTSNYANWVQQKPGQAFRGLIGGTNKRAPGVPARFSGSLLGGKAALTISGAQPEDEADYYCALWYSNHWVFGCGTKLTVLEVQLLESGGGEVQPGGSLRLSCAASGFSFSINAMGWYRQAPGKRREFVAAIESGRNTVYAESVKGRFTISRDNAKNTVYLQMSSLRAEDTAVYYCGLLKGNRVVSPSVAYWGQGTLVTVKP
notes: chain 2 ends in the 4-1BB sdAb RH3v5-1
B4: DART-Fc B7H3xCD3 (bispecific antibody)
chain 1: DIQLTQSPSFLSASVGDRVTITCKASQNVDTNVAWYQQKPGKAPKALIYSASYRYSGVPSRFSGSGSGTDFTLTISSLQPEDFATYYCQQYNNYPFTFGQGTKLEIKGGGSGGGGEVQLVESGGGLVQPGGSLRLSCAASGFTFSTYAMNWVRQAPGKGLEWVGRIRSKYNNYATYYADSVKDRFTISRDDSKNSLYLQMNSLKTEDTAVYYCVRHGNFGNSYVSWFAYWGQGTLVTVSSGGCGGGEVAALEKEVAALEKEVAALEKEVAALEKGGGDKTHTCPPCPAPEAAGGPSVFLFPPKPKDTLMISRTPEVTCVVVDVSHEDPEVKFNWYVDGVEVHNAKTKPREEQYNSTYRVVSVLTVLHQDWLNGKEYKCKVSNKALPAPIEKTISKAKGQPREPQVYTLPPSREEMTKNQVSLWCLVKGFYPSDIAVEWESNGQPENNYKTTPPVLDSDGSFFLYSKLTVDKSRWQQGNVFSCSVMHEALHNHYTQKSLSLSPGK
chain 2: QAVVTQEPSLTVSPGGTVTLTCRSSTGAVTTSNYANWVQQKPGQAPRGLIGGTNKRAPWTPARFSGSLLGGKAALTITGAQAEDEADYYCALWYSNLWVFGGGTKLTVLGGGGSGGGGEVQLVESGGGLVQPGGSLRLSCAASGFTFSSFGMHWVRQAPGKGLEWVAYISSDSSAIYYADTVKGRFTISRDNAKNSLYLQMNSLRDEDTAVYYCGRGRENIYYGSRLDYWGQGTTVTVSSGGCGGGKVAALKEKVAALKEKVAALKEKVAALKE
chain 3: not shown
notes: Comparator, an analog of the format of WO2017030926A1; three polypeptide chains; also called B7H3xCD3 DART-Fc

Experiments:
[1] = molecular target: T2, CD3 on the surface of human T cells (human, UniProt P07766 23-207); test: flow cytometry on primary human T cells, anti-human IgG APC secondary
T2 construct: whole, on cells; Part of the CD3/TCR complex on cells; also called CD3 epsilon
T2 sequence (P07766 23-207): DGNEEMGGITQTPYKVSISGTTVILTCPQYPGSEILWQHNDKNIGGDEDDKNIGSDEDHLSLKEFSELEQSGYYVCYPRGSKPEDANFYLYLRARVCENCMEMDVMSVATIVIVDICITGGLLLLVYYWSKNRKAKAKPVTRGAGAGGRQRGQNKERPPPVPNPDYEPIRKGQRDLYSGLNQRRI
Description: (§1) Binding of exemplary B7H3-targeting constrained CD3 engaging constructs set forth in Table E3 to CD3 on the surface of primary T cells or B7H3-expressing cells (A375) was assessed by flow cytometry. The T cells were primary T-cells that were negatively enriched from PBMCs isolated from healthy human donor peripheral blood leukopaks. Bound construct was detected with fluorophore-conjugated secondary antibodies specific for the human Fc (anti-human IgG APC secondary antibody) and binding was measured by flow cytometry. Cells incubated with secondary antibody only served as negative controls. Binding was compared to Dual-affinity Re-targeting Antibody (DART)-monomeric Fc format targeting B7H3 and CD3 (DART-Fc B7H3xCD3; see e.g. WO2017030926A1).

[2] = molecular target: T1, human B7H3 (CD276) on the cell surface; test: flow cytometry on A375 cells (B7H3+), anti-human IgG APC secondary
Description: as §1

Binder	binding result [1]	binding result [2]
B1	no binding (tested: 200 nM)	–
B2	no binding (tested: 200 nM)	–
B3	no binding (tested: 200 nM)	–
B4	–	binds
